Source: paper doi:10.1101/2024.01.17.576111

Biological target: PbrSYP71ΔTM-His (lacking TM domain of PbrSYP71) (Pyrus bretschneideri)
Assay: MST

Kd: 185 nM
Substance: F-actin (Pre-formed Actin Filaments, rabbit skeletal muscle actin) (from UniProt P68135 1-377) (natural protein)
